Source: publication PMC8276696 (2021)

Target: wild-type monomeric SARS-CoV-2 S receptor-binding domain (RBD) (SARS-CoV-2 (Wuhan-Hu-1), UniProt P0DTC2)
Assay: BLI

B1: CV30 IgG (antibody, V domains shown)
VH: QVQLVESGGGLIQPGGSLRLSCAASGVIVSSNYMSWVRQAPGKGLEWVSVIYSGGSTYYADSVKGRFTISRDNSKNTLYLQMNSLRAEDTAVYYCARDLDVSGGMDVWGQGTTVTVSS
VL: not shown
How did the Kd turn out when B1 was run?
The Kd was 8.8 nM.
